The chains are these.
B1: LRRC4C peptide fragment: LRRC4C protein fragment, amino acids 354-527 of SEQ ID NO: 3 (protein)
chain: VIVEPPADLNVTEGMAAELKCRASTSLTSVSWITPNGTVMTHGAYKVRIAVLSDGTLNFTNVTVQDTGMYTCMVSNSVGNTTASATLNVTAATTTPFSYFSTVTVETMEPSQDEARTTDNNVGPTPVVDWETTNVTTSLTPQSTRSTEKTFTIPVTDINSGIPGIDEVMKTTK
B2: LRRC4 peptide fragment: LRRC4 protein fragment, amino acids 353-527 of SEQ ID NO: 1 (protein)
chain: PFIMDAPRDLNISEGRMAELKCRTPPMSSVKWLLPNGTVLSHASRHPRISVLNDGTLNFSHVLLSDTGVYTCMVTNVAGNSNASAYLNVSTAELNTSNYSFFTTVTVETTEISPEDTTRKYKPVPTTSTGYQPAYTTSTTVLIQTTRVPKQVAVPATDTTDKMQTSLDEVMKTTK
B3: LRRC4 full-length ectodomain: full-length ectodomain of LRRC4 protein, amino acid residues 39-527 of SEQ ID NO: 1, conjugated to human Fc (protein)
chain: ASAGPQNCPSVCSCSNQFSKVVCTRRGLSEVPQGIPSNTRYLNLMENNIQMIQADTFRHLHHLEVLQLGRNSIRQIEVGAFNGLASLNTLELFDNWLTVIPSGAFEYLSKLRELWLRNNPIESIPSYAFNRVPSLMRLDLGELKKLEYISEGAFEGLFNLKYLNLGMCNIKDMPNLTPLVGLEELEMSGNHFPEIRPGSFHGLSSLKKLWVMNSQVSLIERNAFDGLASLVELNLAHNNLSSLPHDLFTPLRYLVELHLHHNPWNCDCDILWLAWWLREYIPTNSTCCGRCHAPMHMRGRYLVEVDQASFQCSAPFIMDAPRDLNISEGRMAELKCRTPPMSSVKWLLPNGTVLSHASRHPRISVLNDGTLNFSHVLLSDTGVYTCMVTNVAGNSNASAYLNVSTAELNTSNYSFFTTVTVETTEISPEDTTRKYKPVPTTSTGYQPAYTTSTTVLIQTTRVPKQVAVPATDTTDKMQTSLDEVMKTTK
modifications: conjugated to human Fc

Ends that are not written are not given here.

In one experiment the target is T1, FAM19A5 protein (Homo sapiens, UniProt Q7Z5A7). The experiment can be described thus: Co-immunoprecipitation of FLAG-tagged LRRC4 family deletion constructs/fragments with recombinant FAM19A5 in HEK293 cells. The note with it: HEK293 cells expressing FLAG-tagged construct, recombinant FAM19A5 1 μM 30 minutes; IP anti-FLAG, blot anti-FAM19A5 (3-2). It is filed as binding. On the procedure: To understand the interaction between FAM19A5 and members of the LRRC4 protein family, HEK293 cells were modified to express a FLAG-tagged member of the LRRC4 protein family, i.e., LRRC4C protein, LRRC4 protein, or LRRC4B protein. Then, the HEK293 cells or primary cortical neurons were treated with recombinant FAM19A5 protein (1 μM) for 30 minutes, and the binding between FAM19A5 protein and the different members of the LRRC4 protein family was assessed using both co-immunoprecipitation and immunofluorescence assays.
For the co-immunoprecipitation assay, cell lysates from the different FAM19A5-treated HEK293 cells were collected and immunoprecipitated with an anti-FLAG antibody, anti-FAM19A5 (1-65) antibody, or a human IgG antibody (control). Immunoprecipitated proteins were immunoblotted with anti-FLAG and anti-FAM19A5 (3-2) antibodies. For the immunofluorescence assay, the HEK293 cells treated with the recombinant FAM19A5 protein were immunostained with anti-FAM19A5 (3-2) (to detect FAM19A5 protein expression) and anti-FLAG antibodies (to detect member of the LRRC4 protein family). The primary cortical neurons treated with the recombinant FAM19A5 protein were immunostained with anti-FAM19A5 (3-2) and anti-LRRC4B antibodies. The nuclei were stained with Hoechst33342 (blue).
To determine the specific motif or domain of the LRRC4B protein that is responsible for the binding to a FAM19A5 protein, various FLAG-tagged LRRC4B deletion constructs were generated (see Table 6 below). HEK293 cells were transfected with the different deletion constructs and then treated with recombinant FAM19A5 protein as described in Example 1. Then, the cell lysates from the different HEK293 cells were immunoprecipitated with the anti-FLAG antibody. The immunoprecipitated proteins were immunoblotted with anti-FLAG and anti-FAM19A5 (3-2) antibodies.
As described in Example 2, all members of the LRRC4 protein family were capable of binding to FAM19A5 protein to varying degrees. Therefore, to compare the bindings domains, the amino acid sequences of the LRRC4B, LRRC4, and LRRC4C proteins were aligned. […] Therefore, to assess whether the corresponding positions of LRRC4 and LRRC4C were important in the binding of these proteins to FAM19A5 protein, cDNAs encoding either (i) LRRC4C protein fragment (amino acids 354-527 of SEQ ID NO: 3; SEQ ID NO: 66) or (ii) LRRC4 protein fragment (amino acids 353-527 of SEQ ID NO: 1; SEQ ID NO: 67) were constructed (see Table 7). HEK293 cells were transfected to express either of the protein fragments and then treated with recombinant FAM19A5 protein as described in Example 1. Then, the cell lysates from the different HEK293 cells were immunoprecipitated with the anti-FLAG antibody. The immunoprecipitated proteins were immunoblotted with anti-FLAG and anti-FAM19A5 (3-2) antibodies.
Target sequence in this assay (Q7Z5A7 44-132): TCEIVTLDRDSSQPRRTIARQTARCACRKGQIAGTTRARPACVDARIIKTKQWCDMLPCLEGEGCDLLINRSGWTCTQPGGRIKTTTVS
Regarding B1, the “binding to FAM19A5 protein (co-immunoprecipitation)” value was “able to bind to the FAM19A5 protein”. B2: the “binding to FAM19A5 protein (co-immunoprecipitation)” value is given as “able to bind to the FAM19A5 protein”.

The target in another experiment is T1, FAM19A5 protein. In words: ELISA binding of recombinant FAM19A5 to coated hFc-conjugated LRRC4 family ectodomains, fragments or synthetic peptides. As to conditions: hFc-conjugated ectodomain coated 100 nM/well, FAM19A5 0.005-10 nM, 37° C. 1 hour. On the procedure: Next, to confirm the above co-immunoprecipitation results, an ELISA assay was used to measure the binding of the FAM19A5 protein to either the full-length ectodomain of members of LRRC4 protein family or various LRRC4B ectodomain protein fragments. Specifically, an ELISA plate was coated with one of the following LRRC4B ectodomain protein, which was conjugated to human Fc (100 nM/well): (1) full-length ectodomain of LRRC4 protein (amino acid residues 39-527 of SEQ ID NO: 1) (SEQ ID NO: 4); (2) full-length ectodomain of LRRC4B protein (amino acids 36-576 of SEQ ID NO: 2; i.e., construct #7 in Table 6) (SEQ ID NO: 5); (3) full-length ectodomain of LRRC4C protein (amino acids 45-527 of SEQ ID NO: 3) (SEQ ID NO: 6); (4) LRRC4B ectodomain fragment (amino acids 453-576 of SEQ ID NO: 2; i.e., construct #11 in Table 6) (SEQ ID NO: 7); (5) LRRC4B ectodomain fragment (amino acids 484-576 of SEQ ID NO: 2; i.e., construct #12 in Table 6) (SEQ ID NO: 8); (6) LRRC4B ectodomain fragment (amino acids 482-576 of SEQ ID NO: 2) (SEQ ID NO: 9); (7) LRRC4B ectodomain fragment (amino acids 482-497 of SEQ ID NO: 2) (SEQ ID NO: 10); and (8) LRRC4B ectodomain fragment (amino acids 498-576 of SEQ ID NO: 2; i.e., construct #13 in Table 6) (SEQ ID NO: 11). Then, recombinant FAM19A5 proteins (0.005, 0.01, 0.025, 0.05, 0.1, 0.25, 0.5, 1, 2.5, 5, and 10 nM) were added to the relevant wells, and the plates were incubated at 37° C. for 1 hour. Afterwards, the amount of LRRC4B-bound FAM19A5 protein was detected using HRP-conjugated anti-FAM19A5 (1-65) antibody.
As further confirmation, three synthetic polypeptides comprising amino acids 484-497 of SEQ ID NO: 2 (i.e., YTYFTTVTVETLET; SEQ ID NO: 65) were constructed: (1) FB-16 (GYTYFTTVTVETLETQ; SEQ ID NO: 17), (2) FB-20 ([…]; SEQ ID NO: 18), and (3) FB-28 ([…]; SEQ ID NO: 19). The peptides differed in their total length. The ability of these polypeptides to bind to recombinant FAM19A5 protein was assessed using an ELISA assay as described above.
Target sequence in this assay (Q7Z5A7 44-132): as above
For the molecule B3, the EC50 was determined as 0.48 nM.

For another experiment, the target named is hFc-fused hLRRC4B and FAM19A5 complex formation (Homo sapiens, UniProt Q7Z5A7). The experiment can be described thus: Competitive inhibition assay (IC50), plate coated with LRRC4B(453-576, TT/TT)-hFc. It is filed as binding. As to conditions: Table 14; LRRC4B(453-576, TT/TT)-hFc 100 nM coat; peptide 0.03-1000 nM; read-out: IC50 (nM), Inhibition on Complex Formulation between human LRRC4B protein and recombinant FAM19A5 protein (1 ng/mL). On the procedure: The in silico analysis provided in Example 9 highlighted that certain T12 and L13 double mutants might be important in improving the binding affinity of the polypeptides of the present disclosure to the FAM19A5 protein. Therefore, the ability of both the wild-type FB-21 peptide (which is the same as the FB-20 peptide described herein except that the FB-21 peptide additionally contains an alanine at the C-terminus) and several FB-21 mutants were tested for their inhibitor effect on hFc-fused hLRRC4B and FAM19A5 complex formation. Briefly, plate was coated with 100 nM of LRRC4B(453-576, TT/TT)-hFc and then 1 ng/ml of rFAM19A5 was incubated at 37° C. in the presence of increasing concentrations of the different FB-21 peptide fragments (0.03, 0.1, 0.3, 1, 3, 10, 30, 100, 300 and 1000 nM). The LRRC4B-bound FAM19A5 levels were measured using HRP-conjugated 1-65 antibody.
For the molecule GYTYFTTVTVEHFETQPGEEA [FB-21 (H12F13)], the IC50 came out at 9.8 nM. The same measure, in the same setting: to GYTYFTTVTVEIFETQPGEEA [FB-21 (I12F13)] belongs 9.9 nM. The same measure, in the same setting: to GYTYFTTVTVEMRETQPGEEA [FB-21 (M12R13)] belongs 47.9 nM.

For GYTYFTTVTVEQRETQPGEEA [FB-21 (Q12R13)], the IC50 turned out to be 39.9 nM. Still for that read-out and setting: to GYTYFTTVTVEPYETQPGEEA [FB-21 (P12Y13)] belongs 39 nM.

Another experiment concerns the target T1, FAM19A5 protein. The experiment can be described thus: competitive inhibition ELISA, 20 nM peptide, rFAM19A5 5 ng/mL; competitor: coated LRRC4B(36-576)-hFc.
Details: not given
As for KNTTVTVETNKETQ [FB-m7dN], the Inhibition rate (%) was found to be 2%. As for KNYTYFTTVTVENKETQ [FB-m10dC], the Inhibition rate (%) turned out to be 62%.

Consider KNYTYFTTVTVETNKETQ [FB-m11dC], for which the Inhibition rate (%) came out at 65%.

In the case of KNFTTVTVETNKETQ [FB-m8dN], the Inhibition rate (%) came out at 3.3%.

Take KNYTYFTTVNKETQ [FB-m7dC]: the Inhibition rate (%) was determined as 4.4%.

Consider KNYTYFTTVTVNKETQ [FB-m9dC], for which the Inhibition rate (%) came to 16.8%. Still for that read-out and setting: to KNYFTTVTVETNKETQ [FB-m9dN] belongs 2.5%; to KNYTYFTTVTNKETQ [FB-m8dC], 5.1%.

Take KNTYFTTVTVETNKETQ [FB-m10dN]: the Inhibition rate (%) worked out at 7.7%. Same read-out and setting: to KNYTYFTTNKETQ [FB-m6dC] belongs 14.9%.

The target in the next experiment is T1, FAM19A5 protein. The experiment can be described thus: competitive inhibition ELISA, 20 nM peptide, rFAM19A5 1 ng/mL; competitor: coated LRRC4B(453-576)-hFc.
Details: not given
As for KNTTVTVETNKETQ [FB-m7dN], the Inhibition rate (%) is -1.8%. The same measure, in the same setting: to KNYTYFTTVTVENKETQ [FB-m10dC] belongs 21.9%; to KNYTYFTTVTVETNKETQ [FB-m11dC], 30.4%. KNFTTVTVETNKETQ [FB-m8dN]: the Inhibition rate (%) is -1.1%. On the same count and under the same terms, to KNYTYFTTVNKETQ [FB-m7dC] belongs 0.4%; to KNYTYFTTVTVNKETQ [FB-m9dC], 2.7%.

Take KNYFTTVTVETNKETQ [FB-m9dN]: the Inhibition rate (%) was -1.6%. Consider KNYTYFTTVTNKETQ [FB-m8dC], for which the Inhibition rate (%) was -0.9%. As to KNTYFTTVTVETNKETQ [FB-m10dN], the Inhibition rate (%) is 0%. Take KNYTYFTTNKETQ [FB-m6dC]: the Inhibition rate (%) worked out at 5.5%.

Source of the values: patent publication US20240238445A1, “INHIBITORS AND USES THEREOF” (NEURACLE SCIENCE CO., LTD., priority 2021, published 2024).
